Experimental data: publication PMC3903573, “Effects of an Anticarcinogenic Bowman-Birk Protease Inhibitor on Purified 20S Proteasome and MCF-7 Breast Cancer Cells” (PLoS ONE, 2014)

Legend:
[1] = biological target: 20S proteasome purified from horse erythrocytes (horse); experiment: enzyme inhibition assay (fluorogenic substrates, Morrison equation); 20S proteasome 2.0 µg/mL with BTCI 2.0 to 30.0 µg/mL and 62.5 µg/mL fluorogenic substrate; 20.0 mM Tris-HCl pH 7.5, 1.0 mM EDTA, 1.0 mM NaN3, 1.0 mM DTT; room temperature, 60 min; Ki fitted with GRAFIT; settings: both partners purified
[2] = biological target: the molecule itself; experiment: dynamic light scattering; BTCI alone, 15 µM, pH 7.5; hydrodynamic diameter 4.5 nm

B1: Black-eyed pea Trypsin/Chymotrypsin Inhibitor (natural protein, Vigna unguiculata (Cowpea), UniProt P17734 1-83, looked up)
chain: SGHHXXSTXXASXSSKPCCRXCACTKSIPPXCRCSXVRLNSCHSACKSCACTFSIPAXCFCGXIXXFCYKPCKSSHSXXXXWN
modifications: X not resolved here
notes: 83 amino acid residues, seven disulfide bonds, 9.1 kDa; reactive sites Lys26 (trypsin) and Phe53 (chymotrypsin); By DLS a trimer at 15 µM and pH 7.5; also called BTCI; source: isolated from Vigna unguiculata (Cowpea) seeds, purified as previously described [29]
KI or Kd, caspase-like site [1]: 1400 nM | KI or Kd, chymotrypsin-like site [1]: 700 nM | KI or Kd, trypsin-like site [1]: 100 nM | stoichiometry N [2]: 3
